± gives the standard deviation.
Test: protein stability index of a GFP-peptide fusion (GPS, HEK-293T) (PSI 1-6); higher = more stable
Settings: c terminus: a fixed tail appended
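Also: 24-mer peptide tiles fused after GFP, lentivirally expressed, FACS-sorted into six equal bins by GFP/DsRed ratio, decoded by Illumina sequencing, PSI is the read-weighted mean bin number.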

Sequence: KAMNMRYSDRTNIISKPVPQTLIM [FEM1C]
- protein stability index (treatment: DMSO): 2.09 ± 0.14
- protein stability index (treatment: MLN4924 1 uM, 8 h): 2.38 ± 0.5

Sequence: MTQVITRTQEEKLEHVRALIKKYS [TRIM55]
- protein stability index (treatment: DMSO): 2.68 ± 0.11
- protein stability index (treatment: MLN4924 1 uM, 8 h): 2.94 ± 0.3

Sequence: WAVQGQNVLHGYPKDIYSSFGFPR [MMP1]
- protein stability index (treatment: DMSO): 2.39 ± 0.18
- protein stability index (treatment: MLN4924 1 uM, 8 h): 2.15 ± 0.057

Sequence: APAGASYNPSFEDHQTLLSAAHEV [NOP53]
- protein stability index (treatment: DMSO): 4.73 ± 0.14
- protein stability index (treatment: MLN4924 1 uM, 8 h): 4.71 ± 0.14

Sequence: GGFAKCYEMTDLTNNKVYAAKIIP [PLK2]
- protein stability index (treatment: DMSO): 2.52 ± 0.38
- protein stability index (treatment: MLN4924 1 uM, 8 h): 2.81 ± 0.29

Sequence: RHDVIVSIVTAAKKDILLVNDHLL [PDS5B]
- protein stability index (treatment: DMSO): 2.51 ± 0.31
- protein stability index (treatment: MLN4924 1 uM, 8 h): 2.29 ± 0.5

Sequence: QYYEACRKAAKSLIKLGLERFHGV [ACSBG2]
- protein stability index (treatment: DMSO): 3.51 ± 1.3
- protein stability index (treatment: MLN4924 1 uM, 8 h): 3.45 ± 0.44

Sequence: SQIQYMNTVVSTYVTTNVSLIPPR [TMEM106C]
- protein stability index (treatment: DMSO): 2.12 ± 0.22
- protein stability index (treatment: MLN4924 1 uM, 8 h): 2.07 ± 0.12

Sequence: QLNGTANDTAGPELPDPLGGLLDE [NFE2L1]
- protein stability index (treatment: DMSO): 5.11 ± 0.32
- protein stability index (treatment: MLN4924 1 uM, 8 h): 5.37 ± 0.32

Sequence: KNKPKMNYEKLSRGLRYYYDKNII [ETS1]
- protein stability index (treatment: DMSO): 2.71 ± 1.1
- protein stability index (treatment: MLN4924 1 uM, 8 h): 2.17 ± 0.28

Sequence: GSFHGPGHISLRRENSSDSPKELK [DLC1]
- protein stability index (treatment: DMSO): 4.99 ± 0.39
- protein stability index (treatment: MLN4924 1 uM, 8 h): 5.09 ± 0.41

Sequence: TMLIVHHRTHTGERPYGCDECEKA [ZNF649]
- protein stability index (treatment: DMSO): 3.75 ± 0.32
- protein stability index (treatment: MLN4924 1 uM, 8 h): 3.7 ± 0.49

Sequence: LRAELTKVEEEIVTLRQVLAAKER [TPD52L2]
- protein stability index (treatment: DMSO): 2.93 ± 0.31
- protein stability index (treatment: MLN4924 1 uM, 8 h): 3.45 ± 0.3

Sequence: RTYKQRFLFAKLFSHITSARKARK [PHTF1]
- protein stability index (treatment: DMSO): 2.17 ± 0.14
- protein stability index (treatment: MLN4924 1 uM, 8 h): 2.55 ± 0.58

Sequence: KHVEYEVSSQRFKSSVYRRYNDFV [SNX8]
- protein stability index (treatment: DMSO): 2.35 ± 0.3
- protein stability index (treatment: MLN4924 1 uM, 8 h): 2.8 ± 0.39

Sequence: RSLFIDRTIVKGYNENVYTEDGKL [MED27]
- protein stability index (treatment: DMSO): 4.07 ± 0.25
- protein stability index (treatment: MLN4924 1 uM, 8 h): 4.12 ± 0.21

Sequence: MQAASSKMVSAEISENRKRQWPTK [SDE2]
- protein stability index (treatment: DMSO): 4.33 ± 0.33
- protein stability index (treatment: MLN4924 1 uM, 8 h): 4.7 ± 0.17

Sequence: RDCGEEMQNGAGASRTSTIFLNGN [TNXB]
- protein stability index (treatment: DMSO): 3.99 ± 0.56
- protein stability index (treatment: MLN4924 1 uM, 8 h): 4.34 ± 0.23

Sequence: QLWGQKKKNSNMTYEKLSRAMRYY [ELF3]
- protein stability index (treatment: DMSO): 2.29 ± 0.042
- protein stability index (treatment: MLN4924 1 uM, 8 h): 2.32 ± 0.25

Sequence: YNVIIGWSIFYFFKSFQYPLPWSE [SLC6A17]
- protein stability index (treatment: MLN4924 1 uM, 8 h): 3.32 ± 0.67

Sequence: EKLNIPWNHIRLQRTAKGKPVLAK [AASDHPPT]
- protein stability index (treatment: DMSO): 3.16 ± 0.2
- protein stability index (treatment: MLN4924 1 uM, 8 h): 3.05 ± 0.33

Sequence: HLRNKTEDLEATSEHFKTTSQKVA [VAMP8]
- protein stability index (treatment: DMSO): 5.01 ± 0.24
- protein stability index (treatment: MLN4924 1 uM, 8 h): 5.07 ± 0.14

Sequence: KLIATSNKPAVKLLYNRSNNKYSY [KCTD10]
- protein stability index (treatment: DMSO): 2.23 ± 0.14
- protein stability index (treatment: MLN4924 1 uM, 8 h): 2.49 ± 0.23

Sequence: PTRCTLEAGAMTFHYIIEQGVCYL [SEC22B]
- protein stability index (treatment: DMSO): 2.93 ± 0.96
- protein stability index (treatment: MLN4924 1 uM, 8 h): 3.14 ± 0.46

Sequence: LAARVIVNHRIYYKGHIPEKLETF [FEM1C]
- protein stability index (treatment: DMSO): 2.82 ± 0.99
- protein stability index (treatment: MLN4924 1 uM, 8 h): 2.47 ± 0.52

Sequence: RHSISMPAMRNSPTFKSFEERVET [TPD52L1]
- protein stability index (treatment: DMSO): 4.66 ± 0.18
- protein stability index (treatment: MLN4924 1 uM, 8 h): 4.75 ± 0.42

Sequence: RYLLCELVSDDPRCRLSLDDRVLS [POP5]
- protein stability index (treatment: DMSO): 2.31 ± 0.25
- protein stability index (treatment: MLN4924 1 uM, 8 h): 2.36 ± 0.27

Sequence: AARNACRAGTEPSDAIRVVNAVLT [TRIP13]
- protein stability index (treatment: DMSO): 3 ± 0.45
- protein stability index (treatment: MLN4924 1 uM, 8 h): 3.19 ± 0.33

Sequence: RTNLPIFKLKESCVRRRYSDFEWL [SNX12]
- protein stability index (treatment: DMSO): 2.27 ± 0.29
- protein stability index (treatment: MLN4924 1 uM, 8 h): 2.74 ± 0.56

Sequence: ERQEEQSAAIHISETLEQKPHFES [EPB41L3]
- protein stability index (treatment: DMSO): 5.43 ± 0.15
- protein stability index (treatment: MLN4924 1 uM, 8 h): 5.38 ± 0.28

Sequence: AYIQCQFEDLNKRKDTKEIYTHFT [GNAI1]
- protein stability index (treatment: DMSO): 2.14 ± 0.49
- protein stability index (treatment: MLN4924 1 uM, 8 h): 2.25 ± 0.3

Sequence: GVHVRRTDKVGTEAAFHPIEEYMV [FUT8]
- protein stability index (treatment: DMSO): 3.36 ± 0.29
- protein stability index (treatment: MLN4924 1 uM, 8 h): 3.58 ± 0.27

Sequence: FGSQQSPIDVVEKYDPKTQEWSFL [KLHL12]
- protein stability index (treatment: DMSO): 3.44 ± 0.34
- protein stability index (treatment: MLN4924 1 uM, 8 h): 3.65 ± 0.39

Sequence: NVGLESKYLKKREDSIPLRGLSQN [SASS6]
- protein stability index (treatment: DMSO): 4.34 ± 0.19
- protein stability index (treatment: MLN4924 1 uM, 8 h): 4.06 ± 0.26

Sequence: PAAGLDVTQPCGDCGTIQENWVCL [HDAC6]
- protein stability index (treatment: DMSO): 2.68 ± 0.25
- protein stability index (treatment: MLN4924 1 uM, 8 h): 2.79 ± 0.25

Sequence: SSLTADLLSVDAFAAPSPATTASP [SNAP91]
- protein stability index (treatment: DMSO): 4.65 ± 0.19
- protein stability index (treatment: MLN4924 1 uM, 8 h): 4.7 ± 0.083

Sequence: VSMLGYPFILPDMVGGNAVPQRTA [MYORG]
- protein stability index (treatment: DMSO): 2.25 ± 0.42
- protein stability index (treatment: MLN4924 1 uM, 8 h): 2.54 ± 0.32

Sequence: LVSRHDPASRRRVVEEVRRRATSG [LPCAT4]
- protein stability index (treatment: DMSO): 4.5 ± 0.19
- protein stability index (treatment: MLN4924 1 uM, 8 h): 4.49 ± 0.23

From the supplement of paper PMC10567573
